Consider 62 sequences from the supplement of paper PMC7877785.

A short description of the data set: self-splicing fitness, log relative to wild type (ln ratio); higher = more splicing; Tetrahymena group I intron in knt gene, E. coli kanamycin selection, DiMSum; sequences stand for … in CUCUCU…GGAGGGAAAAGUUAUCAGGCAUGCACCUGGUAGCUAGUCUUUAAACCAAUAGAUUGCAUCGGUUUAAAAGGCAAGACCGUCAAAUUGCGGGAAAGGGGUCAACAGCCGUUCAGUACCAAGUCUCAGGGGAAACUUUGAGAUGGCCUUGCAAAGGGUAUGGUAAUAAGCUGACGGACAUGGUCCUAACCACGCAGCCAAGUCCUAAGUCAACAGAUCUUCUGUUGAUAUGGAUGCAGUUCACAGACUAAAUGUCGGUCGGGGAAGAUGUAUUCUUCUCAUAAGAUAUAGUCGGACCUCUCCUUAAUGGGAGCUAGCGGAUGAAGUGAUGCAACACUGGAGCCGCUGGGAACUAAUUUGUAUGCGAAAGUAUAUUGAUUAGUUUUGGAGUACUCGUGGUCG
The method in brief:
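The eight P1ex-region nucleotides of an intron in the knt kanamycin-resistance gene on pET-22b(+) were all randomised and the library put into E. coli BL21(DE3). Six replicate transformations were grown overnight at 37°C or 30°C on LB agar with or without 25 μg/mL kanamycin, together with 100 μg/mL carbenicillin, 50 μM IPTG and 0.2% rhamnose. Colonies were pooled and amplicon-sequenced on an Illumina HiSeq 2500. Fitness from DiMSum is the error-weighted combination of wild-type-normalised replicate fold changes, kanamycin over none.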

± gives the uncertainty stated by the source.

Take CGGAAGCAAUAUUACGACGU: the “self-splicing fitness (ln)” value reads like this: (30 °C) -2.55 ± 0.11; (37 °C) -0.27 ± 0.12. On the same counts, the results for GCCCAGCAAUAUUACGGAGC are -4.06 ± 0.39 and -2.17 ± 0.34. On the same counts, the results for ACUUAGCAAUAUUACGGCCC are -1.01 ± 0.34 and -0.451 ± 0.29. Consider CUCGAGCAAUAUUACGACAC, for which the “self-splicing fitness (ln)” value (30 °C) is -2.69 ± 0.27.

Consider CGAUAGCAAUAUUACGCUUC, for which the “self-splicing fitness (ln)” value reads like this: (30 °C) -3.11 ± 0.26; (37 °C) -2.99 ± 0.47.

AGAGAGCAAUAUUACGACCG: the “self-splicing fitness (ln)” value (30 °C) is -2.92 ± 0.4. Turning to CGGUAGCAAUAUUACGAUUG, the “self-splicing fitness (ln)” value reads like this: (30 °C) -0.538 ± 0.073; (37 °C) -0.0537 ± 0.095. Consider GGGUAGCAAUAUUACGUCAG, for which, for the setting “37 °C”, the “self-splicing fitness (ln)” value was -0.355 ± 0.32. Regarding AUGUAGCAAUAUUACGCAUU, the “self-splicing fitness (ln)” value is, setting by setting: (30 °C) -3.93 ± 0.18; (37 °C) -2.89 ± 0.23. On the same counts, the results for CAUCAGCAAUAUUACGCCGU are -2.51 ± 0.11 and -1.13 ± 0.15. On the same counts, the results for CUUAAGCAAUAUUACGAAUU are -3.26 ± 0.22 and -0.957 ± 0.17. On the same counts, the results for GUAUAGCAAUAUUACGAUAG are -1.67 ± 0.099 and -0.533 ± 0.1. With GCUCAGCAAUAUUACGACAC, the “self-splicing fitness (ln)” value is -0.687 ± 0.098 (30 °C) and 0.564 ± 0.15 (37 °C). On the same counts, the results for UGUCAGCAAUAUUACGUUGG are -4.09 ± 0.3 and -2.22 ± 0.25. The like results for AGUUAGCAAUAUUACGGGGA were, in that order, -1.84 ± 0.17 and -3.12 ± 0.19.

In the case of UUCUAGCAAUAUUACGUCUA, the “self-splicing fitness (ln)” value (30 °C) was -3.64 ± 0.26 and the “self-splicing fitness (ln)” value (37 °C) is -2.2 ± 0.17.

For UCGCAGCAAUAUUACGCCUU, the “self-splicing fitness (ln)” value runs as follows: (30 °C) -1.44 ± 0.12; (37 °C) -0.631 ± 0.15. On the same counts, the results for UACAAGCAAUAUUACGAUGC are -3.69 ± 0.28 and -3.13 ± 0.29.

For the sequence UGCCAGCAAUAUUACGGGGU, the “self-splicing fitness (ln)” value was -3.57 ± 0.21 (30 °C) and -2.48 ± 0.2 (37 °C).

For GCCUAGCAAUAUUACGAUUC, the “self-splicing fitness (ln)” value is -0.921 ± 0.076 (30 °C) and -0.684 ± 0.096 (37 °C). As to ACCAAGCAAUAUUACGAGCU, the “self-splicing fitness (ln)” value is, setting by setting: (30 °C) -1.62 ± 0.056; (37 °C) -0.791 ± 0.072. The like results for GACUAGCAAUAUUACGAUGC were, in that order, -0.221 ± 0.062 and 0.0502 ± 0.082. On the same counts, the results for GUGAAGCAAUAUUACGAGUG are -0.702 ± 0.094 and -0.702 ± 0.13. On the same counts, the results for GCACAGCAAUAUUACGGAGU are -1.69 ± 0.05 and -0.838 ± 0.061.

For the sequence UACCAGCAAUAUUACGUCGC, the “self-splicing fitness (ln)” value (30 °C) was -2.97 ± 0.17 and the “self-splicing fitness (ln)” value (37 °C) is -1.88 ± 0.2.

As for GAGAAGCAAUAUUACGGAAG, the “self-splicing fitness (ln)” value was -3.57 ± 0.16 (30 °C) and -2.39 ± 0.14 (37 °C). AGGGAGCAAUAUUACGCUUA: the “self-splicing fitness (ln)” value was -3.44 ± 0.24 (30 °C) and -1.62 ± 0.21 (37 °C).

As for AGGGAGCAAUAUUACGUGAC, the “self-splicing fitness (ln)” value was -2.06 ± 0.3 (30 °C) and -1.15 ± 0.39 (37 °C). On the same counts, the results for CUGCAGCAAUAUUACGGCUG are -3.32 ± 0.3 and -1.52 ± 0.26. On the same counts, the results for GAGUAGCAAUAUUACGUUAA are -3.94 ± 0.22 and -2.33 ± 0.18.

As for GUUAAGCAAUAUUACGAUAG, the “self-splicing fitness (ln)” value (37 °C) was -2.07 ± 0.34. GAUGAGCAAUAUUACGUCUA: the “self-splicing fitness (ln)” value was -1.51 ± 0.31 (30 °C) and -1.2 ± 0.25 (37 °C).

Regarding CCGCAGCAAUAUUACGACAU, the “self-splicing fitness (ln)” value by setting is: (30 °C) -3.899 ± 0.024; (37 °C) -2.94 ± 0.039. The like results for CUGAAGCAAUAUUACGUUAC were, in that order, -3.27 ± 0.35 and -2.39 ± 0.44.

As for GUUGAGCAAUAUUACGAUAU, the “self-splicing fitness (ln)” value reads like this: (30 °C) -2.32 ± 0.13; (37 °C) -1.31 ± 0.12. On to CGCGAGCAAUAUUACGGACC, for which the “self-splicing fitness (ln)” value (37 °C) is -1.47 ± 0.31. For the sequence GGUGAGCAAUAUUACGAUGA, the “self-splicing fitness (ln)” value reads like this: (30 °C) -3.32 ± 0.29; (37 °C) -2.29 ± 0.21.

AUGCAGCAAUAUUACGUAGU: the “self-splicing fitness (ln)” value (30 °C) was -1.46 ± 0.088 and the “self-splicing fitness (ln)” value (37 °C) was -0.542 ± 0.089. On the same counts, the results for AUAUAGCAAUAUUACGACAU are 0.126 ± 0.014 and 0.224 ± 0.033. Turning to UAUAAGCAAUAUUACGUCAG, the “self-splicing fitness (ln)” value was -1.22 ± 0.11 (30 °C) and -0.547 ± 0.17 (37 °C). On the same counts, the results for AUCAAGCAAUAUUACGAACA are -1.12 ± 0.08 and -0.578 ± 0.08. On the same counts, the results for UCAAAGCAAUAUUACGACGU are -0.985 ± 0.063 and 0.289 ± 0.069.

GAGCAGCAAUAUUACGUCUC: the “self-splicing fitness (ln)” value is -2.48 ± 0.15 (30 °C) and -2.23 ± 0.22 (37 °C). The like results for CAGCAGCAAUAUUACGCUCU were, in that order, -3.08 ± 0.16 and -2.08 ± 0.17.

On to GCUGAGCAAUAUUACGUACG, for which the “self-splicing fitness (ln)” value was -2.59 ± 0.27 (30 °C) and -1.16 ± 0.29 (37 °C). On the same counts, the results for GACUAGCAAUAUUACGCACC are -0.905 ± 0.18 and 0.000851 ± 0.28.

On to ACGAAGCAAUAUUACGUUUA, for which the “self-splicing fitness (ln)” value is -2.05 ± 0.11 (30 °C) and -0.875 ± 0.085 (37 °C). Consider GCCGAGCAAUAUUACGUCUC, for which the “self-splicing fitness (ln)” value was -2.92 ± 0.22 (30 °C) and -1.44 ± 0.21 (37 °C).

Consider CAUCAGCAAUAUUACGUUCG, for which the “self-splicing fitness (ln)” value reads like this: (30 °C) 0.13 ± 0.046; (37 °C) -0.286 ± 0.063. Turning to UCGGAGCAAUAUUACGGCGC, under “30 °C”, the “self-splicing fitness (ln)” value is -2.09 ± 0.31. Turning to AACGAGCAAUAUUACGUGGG, the “self-splicing fitness (ln)” value (30 °C) was -3.94 ± 0.15 and the “self-splicing fitness (ln)” value (37 °C) is -2.7 ± 0.12. On the same counts, the results for CAUAAGCAAUAUUACGCUCA are -1.25 ± 0.088 and -1.18 ± 0.11.

Take AACUAGCAAUAUUACGAGGU: the “self-splicing fitness (ln)” value reads like this: (30 °C) -3.14 ± 0.3; (37 °C) -2.01 ± 0.25. As to CUUUAGCAAUAUUACGCUUC, the “self-splicing fitness (ln)” value (37 °C) was -2.32 ± 0.38. The same measure, in the same setting: for CUUAAGCAAUAUUACGAGCC the value was -3.51 ± 0.48. Regarding CCACAGCAAUAUUACGUUAA, the “self-splicing fitness (ln)” value was -3.12 ± 0.14 (30 °C) and -2.48 ± 0.14 (37 °C). On the same counts, the results for CACCAGCAAUAUUACGUACC are -4.01 ± 0.43 and -1.84 ± 0.33. CACGAGCAAUAUUACGACGU: the “self-splicing fitness (ln)” value by setting is: (30 °C) -3.25 ± 0.17; (37 °C) -3.34 ± 0.23. In the case of AACGAGCAAUAUUACGAACG, the “self-splicing fitness (ln)” value is -3.03 ± 0.45 (30 °C) and -1.37 ± 0.28 (37 °C). Take ACCUAGCAAUAUUACGGGUA: the “self-splicing fitness (ln)” value by setting is: (30 °C) -1.76 ± 0.12; (37 °C) -1.19 ± 0.088. On the same counts, the results for GGACAGCAAUAUUACGGGCG are -0.664 ± 0.075 and -0.0669 ± 0.09.

With GGUCAGCAAUAUUACGAAAC, the “self-splicing fitness (ln)” value was -0.257 ± 0.22 (30 °C) and -0.396 ± 0.22 (37 °C).
